The target in experiment [1] is T1, MAGEA4 peptide on HLA-A*01:01 (human).
T1 peptide: WVQENYLEYR
In words: cytokine release. As for the experimental part:
(§1) FIG. 7. […] IFNγ release to the supernatant was measured by ELISA after 18 hours of coculture.

The target of experiment [2] is T2, MAGEA4 peptide on HLA-A*01:01 (human).
T2 peptide: TQDWVQENY
Nature of the experiment: cytokine release. How it is done: as §1

In experiment [3] the target is T3, MAGEA4 peptide on HLA-A*01:01 (human).
T3 peptide: EVDPASNTYT
Nature of the experiment: cytokine release. How it is done: as §1

Experiment [4] concerns the target T4, MAGEA4 peptide on HLA-A*01:01 (human).
T4 peptide: LTQDWVQENY
In words: cytokine release. As for the experimental part: as §1

Experiment [5] concerns the target T5, titin peptide on HLA-A*01:01 (human).
T5 peptide: ESDPIVAQY
In words: cytokine release. How it is done: as §1

Experiment [6] deals with T6, MAGEA4 peptide on HLA-A*01:01 (human).
T6 peptide: LVTCLGLSY
In words: cytokine release. How it is done: as §1

Experiment [7] has as its target T7, MAGEA3 peptide on HLA-A*01:01 (human).
T7 peptide: EVDPIGHLY
Nature of the experiment: cytokine release. As for the experimental part: as §1

Experiment [8] deals with T8, MAGEA4 peptide on HLA-A*01:01 (human).
T8 peptide: TLVTCLGLSY
In words: cytokine release. As for the experimental part:
as §1

Experiment [9] addresses T9, MAGEA4 peptide on HLA-A*01:01 (human).
T9 peptide: WVQENYLEY
In words: cytokine release. How it is done:
as §1

The target in experiment [10] is T10, MAGEA4 peptide on HLA-A*01:01 (human).
T10 peptide: KEVDPASNTY
Nature of the experiment: cytokine release. As for the experimental part:
as §1

The target in experiment [11] is T11, MAGEA4 peptide on HLA-A*01:01 (human).
T11 peptide: TTEEQEAAV
In words: cytokine release. How it is done: as §1

The target in experiment [12] is T12, MAGEA4 peptide on HLA-A*01:01 (human).
T12 peptide: DWVQENYLEY
In words: cytokine release. As for the experimental part:
as §1

For experiment [13], the target named is T13, MAGEA4 peptide on HLA-A*01:01 (human).
T13 peptide: ELAHFLLRKY
Nature of the experiment: cytokine release. As for the experimental part: as §1

Experiment [14] concerns the target T14, MAGEA4 peptide on HLA-A*01:01 (human).
T14 peptide: EVDPASNTY
In words: IFN-gamma ELISA after 18 h; 1x10^5 TCR-transduced T cells with 5x10^4 peptide-loaded K562-A*01:01; two donors pooled, non-linear regression; full-length, on cells. How it is done:
FIG. 6. […] The results of two donors were pooled and normalized as percentage of max. The depicted EC50 value was calculated by non-linear regression.
To calculate the EC50 value, non-linear regression was used to create a dose-response curve (FIG. 6). […] The K562 cells express HLA-A*01:01.
A general note: ELISA stands for enzyme-linked immunosorbent assay.

B1: CTC-TCR127 (TCR)
alpha TRAV35*01 CDR3: AGQLWGGSNYKLT
beta TRBV5-1*01 CDR3: ASSLAGTGAHFITNEKLF
As to B1, the binding result is reported as “no recognition” in experiment [1]; “no recognition” in experiment [2]; “recognises” in experiment [3]; “no recognition” in [4]; “no recognition” in experiment [5]; “no recognition” in experiment [6]. Further, the binding result is recorded as “no recognition” in [7]; “no recognition” in experiment [8]; “no recognition” in experiment [9]; “recognises” in [10]; “no recognition” in [11]; “no recognition” in experiment [12]. Besides, in [13], the binding result is “no recognition”. The molecule also registered an EC50 of peptide in experiment [14] of 7.6 nM.

The record behind these values is US20240287156A1 (published 2024).
